Data published in PMC6658569 (2019).

Target: human complement C3 (human)
Assay: MST

Sequence of human complement C3 (human) (chain, as listed by the source, chain 1 of 2): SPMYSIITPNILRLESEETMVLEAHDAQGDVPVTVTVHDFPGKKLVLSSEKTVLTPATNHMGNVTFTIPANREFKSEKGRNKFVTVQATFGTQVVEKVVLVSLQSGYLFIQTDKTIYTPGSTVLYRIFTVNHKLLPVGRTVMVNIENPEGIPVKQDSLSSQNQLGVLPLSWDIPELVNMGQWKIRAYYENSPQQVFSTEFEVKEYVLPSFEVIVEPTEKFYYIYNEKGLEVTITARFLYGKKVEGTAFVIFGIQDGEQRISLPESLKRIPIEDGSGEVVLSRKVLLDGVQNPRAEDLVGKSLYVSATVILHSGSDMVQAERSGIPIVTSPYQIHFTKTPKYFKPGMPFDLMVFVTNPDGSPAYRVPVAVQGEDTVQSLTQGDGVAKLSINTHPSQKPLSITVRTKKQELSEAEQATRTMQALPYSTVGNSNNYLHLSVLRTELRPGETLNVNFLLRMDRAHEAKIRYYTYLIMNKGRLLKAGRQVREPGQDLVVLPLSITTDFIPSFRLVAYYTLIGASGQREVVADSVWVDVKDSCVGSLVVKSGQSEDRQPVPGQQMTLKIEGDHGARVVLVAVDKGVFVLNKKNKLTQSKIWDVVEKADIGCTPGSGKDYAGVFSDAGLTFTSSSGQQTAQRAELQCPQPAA
Sequence of human complement C3 (human) (chain, as listed by the source, chain 2 of 2): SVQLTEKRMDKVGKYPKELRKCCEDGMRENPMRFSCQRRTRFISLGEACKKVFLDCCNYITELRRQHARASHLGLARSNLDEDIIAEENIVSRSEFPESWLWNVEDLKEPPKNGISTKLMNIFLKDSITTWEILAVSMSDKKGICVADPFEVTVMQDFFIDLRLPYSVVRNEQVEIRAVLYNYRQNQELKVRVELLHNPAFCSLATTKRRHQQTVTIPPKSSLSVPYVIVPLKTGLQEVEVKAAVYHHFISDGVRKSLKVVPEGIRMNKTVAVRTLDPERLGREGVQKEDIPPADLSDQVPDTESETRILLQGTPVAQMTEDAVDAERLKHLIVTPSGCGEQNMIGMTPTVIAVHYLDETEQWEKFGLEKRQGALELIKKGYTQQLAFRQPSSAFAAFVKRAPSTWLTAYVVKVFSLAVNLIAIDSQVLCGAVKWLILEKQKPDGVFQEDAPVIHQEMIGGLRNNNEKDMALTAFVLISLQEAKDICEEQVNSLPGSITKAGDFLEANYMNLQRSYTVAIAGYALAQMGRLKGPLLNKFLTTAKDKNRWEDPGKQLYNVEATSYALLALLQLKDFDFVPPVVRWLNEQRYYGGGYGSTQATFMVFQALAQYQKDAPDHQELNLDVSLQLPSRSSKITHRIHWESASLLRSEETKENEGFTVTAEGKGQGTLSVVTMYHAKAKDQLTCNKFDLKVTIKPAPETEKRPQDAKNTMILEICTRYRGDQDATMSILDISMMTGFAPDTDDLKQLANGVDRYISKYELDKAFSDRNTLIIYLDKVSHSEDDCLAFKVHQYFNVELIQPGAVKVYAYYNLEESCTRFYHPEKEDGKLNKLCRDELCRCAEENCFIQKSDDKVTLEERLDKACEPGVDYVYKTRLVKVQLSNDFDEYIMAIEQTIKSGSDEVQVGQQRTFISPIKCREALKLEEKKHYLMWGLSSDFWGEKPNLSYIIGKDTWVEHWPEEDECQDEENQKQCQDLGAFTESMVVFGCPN

B1: YhcD (natural protein)
chain: DGIEIAAVDFDRETLKSLGVDPNISHYFSRSARFLPGEYSLIVSVNGEKKGNIATRFDENGDICLDQAFLQQAGLKIPSEEKNGCYDYILSYPGTTITPLPNQEALDIIVSPQAIIPIGLDLTNAATGGTAALLNYSLMSSRAEFSNGSSDYSQAALEGGININDWMLRSHQFLTQTNGTFSNQNSSTYLQRTFTDLKTLMRAGEVNLNNSVLEGASIYGIEIAPDNALQTSGSGVQVTGIANTSQARVEIRQQGVLIHSILVPAGAFTIPDVPVRNGNSDLNVTVVETDGSSHNYIVPSTLFNQHVESFQGYRFAIGRVDDDYDESPWVISASSGWNLTRWSAMNGGVIVAENYQAASIRSSLVPLPDLTVSSQISTSQDTKDSLQGQKYRLDANYNLPFSLGLTTSLTRSDRHYRELSEAIDDDYTDPTKSTYALGLNWSNSILGGFNISGYKTYSYDGDNDSSNLNINWNKAFKHATVSVNWQHQLSASENNEDDGDLFYVNISIPFGRSNTATLYTRHDDHKTHYGTGVMGVVSDEMSYYVNAERDHDERETSLNGSISSNLHYTQVSLAAGASGSDSRTYNGTMSGGIAVHDQGVTFSPWTINDTFAIAKMDNNIAGVRITSQAGPVWTDFRGNAVIPSIQPWRTSGVEIDTASLPKNVDIGNGTKMIKQGRGAVGKVGFSAITQRRALLNITLSDGKKLPRGVAIEDSEGNYLTTSVDDGVVFLNNIKPDMVLDIKDEQQSCRIHLTFPEDAPKDVFYETATGECQ
modifications: NHS ester fluorescent dye (in the MST assay only)
B1 was tested, and the Kd was 8.9 µM.

B2: NfrA (natural protein)
chain: DNIGTSAEELGLSDYRHFVIYPRLDKALKAQKNNDEATAIREFEYIHQQVPDNIPLTLYLAEAYRHFGHDDRARLLLEDQLKRHPGDARLERSLAAIPVEVKSVTTVEELLAQQKACDAAPTLRCRSEVGQNALRLAQLPVARAQLNDATFAASPEGKTLRTDLLQRAIYLKQWSQADTLYNEARQQNTLSAAERRQWFDVLLAGQLDDRILALQSQGIFTDPQSYITYATALAYRGEKARLQHYLIENKPLFTTDAQEKSWLYLLSKYSANPVQALANYTVQFADNRQYVVGATLPVLLKEGQYDAAQKLLATLPANEMLEERYAVSVATRNKAEALRLARLLYQQEPANLTRLDQLTWQLMQNEQSREAADLLLQRYPFQGDARVSQTLMARLASLLESHPYLATPAKVAILSKPLPLAEQRQWQSQLPGIADNCPAIVRLLGDMSPSYDAAAWNRLAKCYRDTLPGVALYAWLQAEQRQPSAWQHRAVAYQAYQVEDYATALAAWQKISLHDMSNEDLLAAANTAQAAGNGAARDRWLQQAEKRGLGSNALYWWLHAQRYIPGQPELALNDLTRSINIAPSANAYVARATIYRQRHNVPAAVSDLRAALELEPNNSNTQAALGYALWDSGDIAQSREMLEPAHKGLPDDPALIRQLAYVNQRLDDMPATQHYARLVIDDIDNQALITPLTPEQNQQRFNFRRLHEEVGRRWTFSFDSSIGLRSGAMSTANNNVGGAAPGKSYRSYGQLEAEYRIGRNMLLEGDLLSVYSRVFADTGENGVMMPVKNPMSGTGLRWKPLRDQIFFIAVEQQLPLNGQNGASDTMLRASASFFNGGKYSDEWHPNGSGWFAQNLYLDAAQYIRQDIQAWTADYRVSWHQKVANGQTIEPYAHVQDNGYRDKGTQGAQLGGVGVRWNIWTGETHYDAWPHKVSLGVEYQHTFKAINQRNGERNNAFLTIGVHW
modifications: NHS ester fluorescent dye (in the MST assay only)
For B2, the Kd was 1.3 µM.

B3: HtrE (natural protein)
chain: AELVEYDHTFLMGQNASNIDLSRYSEGNPAIPGVYDVSVYVNDQPIINQSITFVAIEGKKNAQACITLKNLLQFHINSPDINNEKAVLLARDETLGNCLNLTEIIPQASVRYDVNDQRLDIDVPQAWVMKNYQNYVDPSLWENGINAAMLSYNLNGYHSETPGRKNESIYAAFNGGMNLGAWRLRASGNYNWMTDSGSNYDFKNRYVQRDIASLRSQLILGESYTTGETFDSVSIRGIRLYSDSRMLPPTLASFAPIIHGVANTNAKVTITQGGYKIYETTVPPGAFVIDDLSPSGYGSDLIVTIEESDGSKRTFSQPFSSVVQMLRPGVGRWDISGGQVLKDDIQDEPNLFQASYYYGLNNYLTGYTGIQITDNNYTAGLLGLGLNTSVGAFSFDVTHSNVRIPDDKTYQGQSYRVSWNKLFEETSTSLNIAAYRYSTQNYLGLNDALTLIDEVKHPEQDLEPKSMRNYSRMKNQVTVSINQPLKFEKKDYGSFYLSGSWSDYWASGQNRSNYSIGYSNSTSWGSYSVSAQRSWNEDGDTDDSVYLSFTIPIEKLLGTEQRTSGFQSIDTQISSDFKGNNQLNVSSSGYSDNARVSYSVNTGYTMNKASKDLSYVGGYASYESPWGTLAGSISANSDNSRQVSLSTDGGFVLHSGGLTFSNDSFSDSDTLAVVQAPGAQGARINYGNSTIDRWGYGVTSALSPYHENRIALDINDLENDVELKSTSAVAVPRQGSVVFADFETVQGQSAIMNITRSDGKNIPFAADIYDEQGNVIGNVGQGGQAFVRGIEQQGNISIKWLEQSKPVSCLAHYQQSPEAEKIAQSIILNGIRCQIQ
modifications: NHS ester fluorescent dye (in the MST assay only)
Work on B3 yielded a Kd of 5.4 µM.
